In IntAct's records for PubMed 29150600:

Each substance was assayed against tlr4_human TLR4 (UniProt O00206).
tlr4_human TLR4, sequence (O00206 whole entry): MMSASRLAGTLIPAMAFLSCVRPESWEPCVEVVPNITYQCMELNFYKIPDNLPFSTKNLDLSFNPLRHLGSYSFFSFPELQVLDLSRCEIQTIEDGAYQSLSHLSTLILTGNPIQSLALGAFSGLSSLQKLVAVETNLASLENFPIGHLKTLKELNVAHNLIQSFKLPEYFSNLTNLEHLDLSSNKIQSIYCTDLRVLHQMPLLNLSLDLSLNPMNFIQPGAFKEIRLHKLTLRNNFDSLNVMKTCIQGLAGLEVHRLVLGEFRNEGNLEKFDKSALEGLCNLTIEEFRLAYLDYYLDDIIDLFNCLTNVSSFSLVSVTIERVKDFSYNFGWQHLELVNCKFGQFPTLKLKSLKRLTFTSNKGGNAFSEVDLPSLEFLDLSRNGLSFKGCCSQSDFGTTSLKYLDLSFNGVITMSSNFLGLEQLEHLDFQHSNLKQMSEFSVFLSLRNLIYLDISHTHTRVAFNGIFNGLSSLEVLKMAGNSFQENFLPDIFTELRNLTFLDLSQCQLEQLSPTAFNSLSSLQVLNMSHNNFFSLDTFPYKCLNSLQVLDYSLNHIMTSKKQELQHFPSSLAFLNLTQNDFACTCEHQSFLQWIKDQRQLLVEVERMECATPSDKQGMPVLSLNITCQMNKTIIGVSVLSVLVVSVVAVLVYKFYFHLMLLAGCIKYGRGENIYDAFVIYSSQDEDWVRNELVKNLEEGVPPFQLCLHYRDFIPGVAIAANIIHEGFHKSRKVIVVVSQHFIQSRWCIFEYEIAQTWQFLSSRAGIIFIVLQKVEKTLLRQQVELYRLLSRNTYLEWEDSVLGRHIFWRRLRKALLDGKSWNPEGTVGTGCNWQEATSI

Substance | effect of a mutation on the interaction
Tenascin (Homo sapiens), P24821 K2096A;R2098A | decreasing interaction strength
Tenascin (Homo sapiens), P24821 K2096A;R2098A;K2100A;K2102A | decreasing interaction strength
Tenascin (Homo sapiens), P24821 K2100A;K2102A | decreasing interaction strength
Tenascin (Homo sapiens), P24821 K2096A;R2098A;K2100A;K2102A;D2130P;I2133L;N2135S | decreasing interaction strength
Tenascin (Homo sapiens), P24821 D2130P;I2133L;N2135S | decreasing interaction strength
